Measured values from US20240124590A1 (ULTRAHUMAN EIGHT, published 2024).
Like-named read-outs stand apart in the source and are kept apart here.

Assays:
[1] = biological target: T1, human PD1 expressed on cells (human, UniProt Q15116 25-288); assay: cell-based or functional assay
[2] = biological target: T2, human PD1 His tagged (monomeric) (human, UniProt Q15116 25-170, limits assumed); assay: SPR (Biacore), IgG captured, monomeric PD1-His analyte
T2 construct: Soluble monomeric analyte; whole entry named; also called monomeric human PD1; not shown: His tag
T2 sequence (Q15116 25-170 limits assumed): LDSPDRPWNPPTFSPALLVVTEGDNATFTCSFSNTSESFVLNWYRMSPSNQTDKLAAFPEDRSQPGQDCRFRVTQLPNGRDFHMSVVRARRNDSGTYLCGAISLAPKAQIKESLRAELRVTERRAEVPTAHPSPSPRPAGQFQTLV
Method: (§1) Affinity (KD) of purified IgGs was determined via SPR with antigen in-solution on a Biacore 3000 (GE). A mouse anti-human antibody (CH1 specific) was immobilized on a CM5 Sensor Chip to a level of 2000 RU in acetate buffer at pH 4.5 using amine coupling following the Wizard instructions for two channels. One channel was used for background signal correction. The standard running buffer HBS-EP pH 7.4 was used. Regeneration was performed with a single injection of 10 μl of 10 mM Glycine at pH 1.5 at 20 μl/minute. IgG samples were injected for 2 minutes at 50 nM at 30 μl/min followed by and off-rate of 60 seconds. […] The obtained sensorgrams were analysed using the Biacore 3000 evaluation (BIAevaluation) software. The KD was calculated by simultaneous fitting of the association and dissociation phases to a 1:1 Langmuir binding model.
(§2) Biacore analyses of binding affinity was performed for all IgGs to solution-phase, monomeric human and cyno PD1 proteins.

[3] = biological target: T3, cynomolgus monkey PD1 His tag (monomeric) (cynomolgus monkey, UniProt Q15116 25-170 (human entry), limits assumed); assay: as above
T3 construct: Soluble monomeric analyte; whole entry named; also called monomeric cyno PD1; not shown: His tag
T3 chain: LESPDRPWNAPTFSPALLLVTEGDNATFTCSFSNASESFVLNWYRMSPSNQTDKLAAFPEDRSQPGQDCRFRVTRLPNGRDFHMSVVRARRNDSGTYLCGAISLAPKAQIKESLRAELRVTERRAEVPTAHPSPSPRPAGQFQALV
Method: as §1, §2

[4] = biological target: T4, biotinylated human PD1-His/AviTag (human, UniProt Q15116 25-170, limits assumed, biotinylated); assay: Alphascreen competition vs IgG1-Mab005 (humanized)
T4 construct: Alphascreen antigen; whole entry named; also called biotinylated monomeric human PD1; not shown: His/AviTag
T4 sequence (Q15116 25-170 limits assumed): as the sequence (Q15116 25-170 limits assumed) above
Method: The AlphaScreen assay (Perkin Elmer) was performed in a 25 μl final volume in 384-well white microtiter plates (Greiner). The reaction buffer contained 1×PBS pH 7.3 (Oxoid, Cat. nr. BRO014G) and 0.05% (v/v) Tween® 20 (Sigma, Cat. nr. P9416). Purified IgG samples were titrated in three fold serial dilutions starting at 500 nM final concentration and incubated with biotinylated human PD1-His/AviTag at 0.6 nM final concentration for 20 minutes at room temperature. […] Followed by addition of the Streptavidin Donor beads at 20 μg/ml (final concentration) and incubation for 30 minutes at room temperature. The emission of light was measured in the EnVision multilabel plate reader (Perkin Elmer) and analysed using the EnVision manager software. Values were reported as Counts Per Second (CPS) and corrected for crosstalk.

[5] = biological target: T3, cynomolgus monkey PD1 His tag …; assay: SPR (Biacore); cyno KD against human KD
Method: as §1, §2

[6] = biological target: T5, human PD1 human Fc tagged recombinant protein (human, UniProt Q15116 25-170, limits assumed); assay: direct ELISA, IgG1null on coated PD1-Fc
T5 construct: also called huPD1-Fc; huPD-1-Fc; not shown: human Fc tag
T5 sequence (Q15116 25-170 limits assumed): as the sequence (Q15116 25-170 limits assumed) above
Method: (§3) Binding and cross-reactivity of the lead panel to the recombinant proteins was initially assessed by binding ELISA. The human PD1 human Fc tagged recombinant protein and the cynomolgus monkey PD1 human Fc tagged recombinant protein were coated to the surface of MaxiSorp™ flat-bottom 96 well plate at 1 μg/ml. […] The Fabs were detected using mouse anti-c-myc antibody followed by donkey anti-mouse IgG conjugated to horseradish peroxidase. The IgGs were detected using the mouse anti-human IgG conjugated to horseradish peroxidase. Binding signals were visualized with 3,3′,5,5′-Tetrannethylbenzidine Substrate Solution (TMB) and the absorbance measured at 450 nm.
(§4) The purified IgGs described above were then tested for binding to human and cyno PD1-Fc in direct titration ELISA format. […] As the ELISA EC50 values for directly binding IgGs are strongly influenced by avidity, rather than true 1:1 binding affinity, we then proceeded to perform higher-sensitivity, solution-phase epitope competition and Biacore binding affinity determinations, as outlined below.

[7] = biological target: T6, cynomolgus monkey PD1 human Fc tagged recombinant protein (cynomolgus monkey, UniProt Q15116 25-170 (human entry), limits assumed); assay: direct ELISA, IgG1null on coated PD1-Fc
T6 construct: also called cyPD1-Fc; cyPD-1-Fc; not shown: human Fc tag
T6 chain: T3 chain
Method: as §3, §4

[8] = biological target: T1, human PD1 expressed on cells; assay: flow cytometry, PD1 CHO-K1 cells
Method: (§5) Purified IgGs were tested in FACs for binding to human and cyno PD1 expressed on CHO-K1 stable cell lines and CHO-K1 wild-type cells. […] Binding of IgGs was detected with a mouse anti-human IgG conjugated to FITC. Results were analyzed by examining the Mean Fluorescence Intensity (MFI) of 10000 cells per sample in the BL-1 channel detector of a flow cytometer (Attune™ NxT Acoustic Focusing Cytometer, Invitrogen/ThermoFisher Scientific).
(§6) Antibodies to PD1 were analysed for concentration-dependent binding at the cell surface via flow cytometry. Initial analyses were performed on CHO cells stably-transfected with human or cyno PD1.

[9] = biological target: T7, cyno PD1 expressed on CHO-K1 cells (cynomolgus monkey, UniProt Q15116 25-288 (human entry)); assay: flow cytometry, PD1 CHO-K1 cells
T7 construct: also called cyno PD1+ CHO cells
T7 chain: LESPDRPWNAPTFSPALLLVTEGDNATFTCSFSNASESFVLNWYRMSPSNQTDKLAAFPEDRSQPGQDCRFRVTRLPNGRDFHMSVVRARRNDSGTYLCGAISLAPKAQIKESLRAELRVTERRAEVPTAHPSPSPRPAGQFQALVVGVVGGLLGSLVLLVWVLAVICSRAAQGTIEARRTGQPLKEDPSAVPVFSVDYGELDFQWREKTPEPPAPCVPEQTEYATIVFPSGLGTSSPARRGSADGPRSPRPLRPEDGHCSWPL
Method: as §5, §6

[10] = biological target: T5, human PD1 human Fc tagged recombinant …; assay: direct ELISA, IgG1null on coated PD1-Fc; remark: listed apart in the source
Method: as §3, §4

[11] = biological target: T6, cynomolgus monkey PD1 human Fc tagged …; assay: direct ELISA, IgG1null on coated PD1-Fc
Method: as §3, §4

[12] = biological target: T8, human KDR (VEGFR2) on cells (human, UniProt P35968 20-1356); assay: cell microarray re-array, transfected HEK293
T8 construct: Transfected HEK293 cells (arrays, flow cytometry) and human VEGFR2 reporter cells
Method: (§7) Antibody binding was detected using AF647 fluorescent secondary anti-human IgG1 antibody. Primary hits (duplicate spots) were identified by analysing fluorescence (AF647 and ZsGreen1) on ImageQuant. Vectors encoding all hits were sequenced to confirm their correct identities. […] Slides were analysed as above. Flow cytometry confirmation screen: Expression vectors encoding ZsGreen1 only, or ZsGreen1 and PD1, FZDS, KDR or ULBP2, were transfected into human HEK293 cells. Each live transfectant was incubated with […] of each of the test antibodies and the Isotype control antibody. Cells were washed, and incubated with the same AF647 anti-human IgG Fc detection antibody as used in the cell microarray screens. Cells were again washed, and analysed by flow cytometry using an Accuri flow cytometer (BD). A 7AAD live/dead dye was used to exclude dead cells, and ZsGreen1-positive cells (i.e. transfected cells) were selected for analyses.

[13] = biological target: T1, human PD1 expressed on cells; assay: cell microarray re-array, transfected HEK293
Method: as §7

[14] = biological target: T9, human ULBP2 (UL16 binding protein 2) on transfected HEK293 cells (human, UniProt Q9BZM5 26-217); assay: cell microarray re-array, transfected HEK293
T9 sequence: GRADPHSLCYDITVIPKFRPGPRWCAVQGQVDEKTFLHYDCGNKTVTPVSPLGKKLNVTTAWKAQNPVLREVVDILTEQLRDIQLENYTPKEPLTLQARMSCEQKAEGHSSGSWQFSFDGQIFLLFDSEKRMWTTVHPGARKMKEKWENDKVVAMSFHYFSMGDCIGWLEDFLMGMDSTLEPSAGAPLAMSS
Method: as §7

[15] = biological target: T10, human FZD5 (frizzled class receptor 5) on transfected HEK293 cells (human, UniProt Q13467 27-585); assay: cell microarray re-array, transfected HEK293
T10 construct: also called FZDS; FZ5
T10 sequence (Q13467 27-585 limits assumed): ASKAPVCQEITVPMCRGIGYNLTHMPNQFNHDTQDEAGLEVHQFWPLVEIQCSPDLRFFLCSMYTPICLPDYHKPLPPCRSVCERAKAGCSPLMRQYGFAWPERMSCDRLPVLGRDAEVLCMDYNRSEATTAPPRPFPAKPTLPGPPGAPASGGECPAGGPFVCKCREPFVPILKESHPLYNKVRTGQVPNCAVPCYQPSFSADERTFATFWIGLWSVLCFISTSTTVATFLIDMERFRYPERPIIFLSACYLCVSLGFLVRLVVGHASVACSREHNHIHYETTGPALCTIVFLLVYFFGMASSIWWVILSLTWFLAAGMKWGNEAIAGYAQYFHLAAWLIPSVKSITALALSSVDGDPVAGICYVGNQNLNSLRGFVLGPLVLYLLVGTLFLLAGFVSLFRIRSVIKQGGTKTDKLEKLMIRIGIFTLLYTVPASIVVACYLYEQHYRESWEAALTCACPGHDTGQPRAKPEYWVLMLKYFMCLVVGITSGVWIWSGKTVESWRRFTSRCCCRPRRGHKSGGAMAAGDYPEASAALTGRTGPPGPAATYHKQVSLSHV
Method: as §7

[16] = biological target: T11, recombinant ectodomain of rhesus VEGFR2 (rhesus); assay: direct ELISA
T11 construct: whole entry named
T11 chain: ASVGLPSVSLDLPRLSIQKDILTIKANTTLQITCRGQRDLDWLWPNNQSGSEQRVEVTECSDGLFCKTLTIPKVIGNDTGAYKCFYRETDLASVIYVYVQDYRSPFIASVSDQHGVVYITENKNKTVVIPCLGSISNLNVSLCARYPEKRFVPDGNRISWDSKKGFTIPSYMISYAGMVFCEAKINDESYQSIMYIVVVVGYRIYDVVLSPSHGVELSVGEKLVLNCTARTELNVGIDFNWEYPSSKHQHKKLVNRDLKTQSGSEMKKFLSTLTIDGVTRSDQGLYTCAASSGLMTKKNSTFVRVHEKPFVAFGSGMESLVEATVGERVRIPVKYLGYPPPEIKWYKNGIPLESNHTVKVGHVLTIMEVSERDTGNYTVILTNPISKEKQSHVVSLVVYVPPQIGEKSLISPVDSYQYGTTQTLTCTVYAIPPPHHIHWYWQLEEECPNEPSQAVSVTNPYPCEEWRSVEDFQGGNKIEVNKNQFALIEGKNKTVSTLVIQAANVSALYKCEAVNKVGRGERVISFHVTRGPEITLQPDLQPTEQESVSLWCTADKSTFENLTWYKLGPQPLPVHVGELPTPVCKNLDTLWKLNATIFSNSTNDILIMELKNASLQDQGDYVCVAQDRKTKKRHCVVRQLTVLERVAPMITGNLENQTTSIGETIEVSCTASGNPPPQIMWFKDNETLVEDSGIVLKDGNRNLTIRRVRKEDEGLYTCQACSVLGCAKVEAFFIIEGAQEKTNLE

[17] = biological target: T12, recombinant ectodomain of human VEGFR2 (human, UniProt P35968 20-764); assay: direct ELISA
T12 construct: whole entry named

[18] = biological target: T13, cyno PD1 protein (construct not stated) (cynomolgus monkey, UniProt Q15116 25-170 (human entry), limits assumed); assay: direct ELISA
T13 construct: may be two constructs; also called cyno PD1 in the Alphascreen screen
T13 chain: T3 chain

[19] = biological target: T14, human PD1 protein (construct not stated) (human, UniProt Q15116 25-170, limits assumed); assay: direct ELISA
T14 construct: Coated protein of the off-target ELISA; whole entry named
T14 sequence (Q15116 25-170 limits assumed): as the sequence (Q15116 25-170 limits assumed) above

[20] = biological target: T15, rhesus monomeric VEGFR2-his protein (rhesus); assay: SPR (Biacore), IgG captured, VEGFR2-his analyte
T15 construct: Soluble analyte; whole entry named; also called rhesus VEGFR2-his; not shown: his tag
T15 chain: T11 chain
Method: as §1

[21] = biological target: T16, human monomeric VEGFR2-his protein (human, UniProt P35968 20-764); assay: SPR (Biacore), IgG captured, VEGFR2-his analyte
T16 construct: Soluble analyte; whole entry named; also called human VEGFR2-his; not shown: his tag
Method: as §1

T1 sequence (Q15116 25-288 limits assumed): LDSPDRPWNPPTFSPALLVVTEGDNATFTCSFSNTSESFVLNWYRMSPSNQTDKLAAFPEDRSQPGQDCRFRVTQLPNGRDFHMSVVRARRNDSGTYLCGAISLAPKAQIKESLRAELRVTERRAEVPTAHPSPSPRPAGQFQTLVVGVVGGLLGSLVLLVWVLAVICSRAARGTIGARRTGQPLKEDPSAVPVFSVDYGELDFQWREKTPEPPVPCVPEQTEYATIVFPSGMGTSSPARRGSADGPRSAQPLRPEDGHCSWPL

B1: IgG1-Mab005 (humanized) (antibody, V domains shown)
VH: EVQLVESGGGLVQPGGSLRLSCAASGFTFSSYMMSWVRQAPGKGLEWVATISGGGANTYYPDSVKGRFTISRDNAKNSLYLQMNSLRAEDTAVYYCARQLYYFDYWGQGTTVTVSS
VL: DIQMTQSPSSLSASVGDRVTITCLASQTIGTWLTWYQQKPGKAPKLLIYTATSLADGVPSRFSGSGSGTDFTLTISSLQPEDFATYYCQQVYSIPWTFGGGTKVEIK
notes: tested as human IgG1null (IgG1 with L234A, L235A, G237A) with human Ckappa; also called Mab005-IgG1 (humanized); Mab005-IgG1 (hum)
B1 was tested, and the “EC50 (ng/ml), IgG1null blockade of human PD1/PD-L1” value [1] was 285 ng/mL, the Kd [2] was 4 nM and the koff [2] was 0.00047 s⁻¹. The kon [2] was 120000 M⁻¹ s⁻¹, the Kd [3] was 32 nM and the koff [3] was 0.0028 s⁻¹. For the same binder, the kon [3] was 88000 M⁻¹ s⁻¹, the IC50 [4] was 2.14 nM and the “human/cyno affinity differential (fold)” value [5] was 8 fold. The EC50 [6] was 0.137 nM, the EC50 [7] was 0.152 nM and the EC50 [8] was 2.32 nM. It also gave an EC50 [9] of 6.53 nM, an EC50 [10] of 0.114 nM and an EC50 [11] of 0.132 nM.

B2: mVH/mVL Mab005-IgG1 (antibody, V domains shown)
VH: EVMLVESGGGLVKPGGSLKLSCAASGFTFSSYMMSWVRQTPEKRLEWVATISGGGANTYYPDSVKGRFTISRDNAKNTLYLQMSSLRSEDTALYYCARQLYYFDYWGQGTTLTVSS
VL: DIQMTQSPASQSASLGEGVTITCLASQTIGTWLTWYQQKPGKSPQLLIYTATSLADGVPSRFSGSGSGTKFSFKISSLQAEDFVTYYCQQVYSIPWTFGGGTKLEIK
notes: Murine PD1-mVH/PD1-mVL on human IgG1null + Ckappa; also called original murine hybridoma v-domains
B2: binds [12]; binds [13]; binds [14]. B2: binds [15]; binds [16]; binds [17]. B2: binds [18]; binds [19]; binds [20]. B2: binds [21].
